From patent publication US20120090043A1, “TARGETS FOR RETROVIRUS ASSOCIATED DISEASES” (priority 2009, published 2012)

B1: NKAP: human host interactor protein, Gene ID 79576, expressed from transfected ORF vector (protein)
chain: MAPVSGSRSPDREASGSGGRRRSSSKSPKPSKSARSPRGRRSRSHSCSRSGDRNGLTHQLGGLSQGSRNQSYRSRSRSRSRERPSAPRGIPFASASSSVYYGSYSRPYGSDKPWPSLLDKEREESLRQKRLSERERIGELGAPEVWGLSPKNPEPDSDEHTPVEDEEPKKSTTSASTSEEEKKKKSSRSKERSKKRRKKKSSKRKHKKYSEDSDSDSDSETDSSDEDNKRRAKKAKKKEKKKKHRSKKYKKKRSKKSRKESSDSSSKESQEEFLENPWKDRTKAEEPSDLIGPEAPKTLTSQDDKPLNYGHALLPGEGAAMAEYVKAGKRIPRRGEIGLTSEEIASFECSGYVMSGSRHRRMEAVRLRKENQIYSADEKRALASFNQEERRKRENKILASFREMVYRKTKGKDDK
B2: KRT15: human host interactor protein, Gene ID 3866, expressed from transfected ORF vector (protein)
chain: MTTTFLQTSSSTFGGGSTRGGSLLAGGGGFGGGSLSGGGGSRSISASSARFVSSGSGGGYGGGMRVCGFGGGAGSVFGGGFGGGVGGGFGGGFGGGDGGLLSGNEKITMQNLNDRLASYLDKVRALEEANADLEVKIHDWYQKQTPTSPECDYSQYFKTIEELRDKIMATTIDNSRVILEIDNARLAADDFRLKYENELALRQGVEADINGLRRVLDELTLARTDLEMQIEGLNEELAYLKKNHEEEMKEFSSQLAGQVNVEMDAAPGVDLTRVLAEMREQYEAMAEKNRRDVEAWFFSKTEELNKEVASNTEMIQTSKTEITDLRRTMQELEIELQSQLSMKAGLENSLAETECRYATQLQQIQGLIGGLEAQLSELRCEMEAQNQEYKMLLDIKTRLEQEIATYRSLLEGQDAKMAGIAIREASSGGGGSSSNFHINVEESVDGQVVSSHKREI
B3: MLLT11: human host interactor protein, Gene ID 10962, expressed from transfected ORF vector (protein)
chain: MRDPVSSQYSSFLFWRMPIPELDLSELEGLGLSDTATYKVKDSSVGKMIGQATAADQEKNPEGDGLLEYSTFNFWRAPIASIHSFELDLL
B4: LOC541468: human host interactor protein, Gene ID 541468, expressed from transfected ORF vector (protein)
chain: MEGTVESQTPDLRDVEGKVGRKTPEGLLRGLRGECELGTSGALLLPGASSTGHDLGDKIMALKMELAYLRAIDVKILQQLVTLNEGIEAVRWLLEERGTLTSHCSSLTSSQYSLTGGSPGRSRRGSWDSLPDTSTTDRLDSVSIGSFLDTVAPSELDEQGPPGAPRSEMDWAKVIAGGERARTEVDVAATRLGSLRAVWKPPGERLQGGPPESPEDESAKLGFEAHWFWEQCQDDVTFL
B5: MIZF: human host interactor protein, Gene ID 25988, expressed from transfected ORF vector (protein)
chain: MPPPGKVPRKENLWLQCEWGSCSFVCSTMEKFFEHVTQHLQQHLHGSGEEEEEEEEDDPLEEEFSCLWQECGFCSLDSSADLIRHVYFHCYHTKLKQWGLQALQSQADLGPCILDFQSRNVIPDIPDHFLCLWEHCENSFDNPEWFYRHVEAHSLCCEYEAVGKDNPVVLCGWKGCTCTFKDRSKLREHLRSHTQEKVVACPTCGGMFANNTKFLDHIRRQTSLDQQHFQCSHCSKRFATERLLRDHMRNHVNHYKCPLCDMTCPLPSSLRNHMRFRHSEDRPFKCDCCDYSCKNLIDLQKHLDTHSEEPAYRCDFENCTFSARSLCSIKSHYRKVHEGDSEPRYKCHVCDKCFTRGNNLTVHLRKKHQFKWPSGHPRFRYKEHEDGYMRLQLVRYESVELTQQLLRQPQEGSGLGTSLNESSLQGIILETVPGEPGRKEEEEEGKGSEGTALSASQDNPSSVIHVVNQTNAQGQQEIVYYVLSEAPGEPPPAPEPPSGGIMEKLQGIAEEPEIQMV
B6: MINA: human host interactor protein, Gene ID 84864, expressed from transfected ORF vector (protein)
chain: MPKKAKPTGSGKEEGPAPCKQMKLEAAGGPSALNFDSPSSLFESLISPIKTETFFKEFWEQKPLLIQRDDPALATYYGSLFKLTDLKSLCSRGMYYGRDVNVCRCVNGKKKVLNKDGKAHFLQLRKDFDQKRATIQFHQPQRFKDELWRIQEKLECYFGSLVGSNVYITPAGSQGLPPHYDDVEVFILQLEGEKHWRLYHPTVPLAREYSVEAEERIGRPVHEFMLKPGDLLYFPRGTIHQADTPAGLAHSTHVTISTYQNNSWGDFLLDTISGLVFDTAKEDVELRTGIPRQLLLQVESTTVATRRLSGFLRTLADRLEGTKELLSSDMKKDFIMHRLPPYSAGDGAELSTPGGKLPRLDSVVRLQFKDHIVLTVLPDQDQSDEAQEKMVYIYHSLKNSRETHMMGNEEETEFHGLRFPLSHLDALKQIWNSPAISVKDLKLTTDEEKESLVLSLWTECLIQVV
B7: DLAT: human host interactor protein, Gene ID 1737, expressed from transfected ORF vector (protein)
chain: MWRVCARRAQNVAPWAGLEARWTALQEVPGTPRVTSRSGPAPARRNSVTTGYGGVRALCGWTPSSGATPRNRLLLQLLGSPGRRYYSLPPHQKVPLPSLSPTMQAGTIARWEKKEGDKINEGDLIAEVETDKATVGFESLEECYMAKILVAEGTRDVPIGAIICITVGKPEDIEAFKNYTLDSSAAPTPQAAPAPTPAATASPPTPSAQAPGSSYPPHMQVLLPALSPTMTMGTVQRWEKKVGEKLSEGDLLAEIETDKATIGFEVQEEGYLAKILVPEGTRDVPLGTPLCIIVEKEADISAFADYRPTEVTDLKPQVPPPTPPPVAAVPPTPQPLAPTPSAPCPATPAGPKGRVFVSPLAKKLAVEKGIDLTQVKGTGPDGRITKKDIDSFVPSKVAPAPAAVVPPTGPGMAPVPTGVFTDIPISNIRRVIAQRLMQSKQTIPHYYLSIDVNMGEVLLVRKELNKILEGRSKISVNDFIIKASALACLKVPEANSSWMDTVIRQNHVVDVSVAVSTPAGLITPIVFNAHIKGVETIANDVVSLATKAREGKLQPHEFQGGTFTISNLGMFGIKNFSAIINPPQACILAIGASEDKLVPADNEKGFDVASMMSVTLSCDHRVVDGAVGAQWLAEFRKYLEKPITMLL
B8: HOXD3: human host interactor protein, Gene ID 3232, expressed from transfected ORF vector (protein)
chain: MLFEQGQQALELPECTMQKAAYYENPGLFGGYGYSKTTDTYGYSTPHQPYPPPAAASSLDTDYPGSACSIQSSAPLRAPAHKGAELNGSCMRPGTGNSQGGGGGSQPPGLNSEQQPPQPPPPPPTLPPSSPTNPGGGVPAKKPKGGPNASSSSATISKQIFPWMKESRQNSKQKNSCATAGESCEDKSPPGPASKRVRTAYTSAQLVELEKEFHFNRYLCRPRRVEMANLLNLTERQIKIWFQNRRMKYKKDQKAKGILHSPASQSPERSPPLGGAAGHVAYSGQLPPVPGLAYDAPSPPAFAKSQPNMYGLAAYTAPLSSCLPQQKRYAAPEFEPHPMASNGGGFASANLQGSPVYVGGNFVESMAPASGPVFNLGHLSHPSSASVDYSCAAQIPGNHHHGPCDPHPTYTDLSAHHSSQGRLPEAPKLTHL
B9: TTC23: human host interactor protein, Gene ID 64927, expressed from transfected ORF vector (protein)
chain: MQESQETHISNHLDEVVAAVSITHRKKFQNKLLQTALFQPPREKLHLCEEKAKSYSNSHEYKQAVHELVRCVALTRICYGDSHWKLAEAHVNLAQGYLQLKGLSLQAKQHAEKARQILANSIVPPYSENTDVFKFSIELFHTMGRALLSLQKFKEAAENLTKAERLSKELLQCGRIIKEEWIEIEARIRLSFAQVYQGQKKSKEALSHYQAALEYVEISKGETSRECVPILRELAGVEQALGLHDVSINHFLQAHLIILSRSPSQVEAADSAHIVAHAAVASGRHEHHDVAEQYFQESMAHLKDSEGMGRTKFLSIQDEFCHFLQMTGQKERATSILRESLEAKVEAFGDFSPEVAETYRLLGGADLAQGNHSGARKKLKKCLQIQTLLYGPQDKRTLATQQAMGMLSTAPKVASKPRQASKAKVAFCTSIPQDTLLGKARPGTTAD

Each molecule was assayed on HIV-1 LTR promoter transactivation by HIV-1 Tat (assay: Transactivation assay, HIV-1 LTR luciferase reporter with HIV-1 Tat). Settings: HEK293 cells co-transfected with pHIV1LTR-Luc, HIV-1 Tat and the human ORF; relative luciferase activity 24 h post-transfection; positive if >=2 or <=0.5 and p<0.05.
Assay type: cell-based
Source text: The plasmids pHIV1LTR-Luc or pHTLV1LTR-Luc containing a luciferase reporter gene under the control of the HIV-1 or HTLV-1 LTR promoters and plasmids expressing either HIV-1 Tat or HTLV-1 Tax and each human ORF found to interact with viral proteins were transfected into 10^4 HEK293 cells using the calcium phosphate method. Twenty-four hours post-transfection, cells were washed three times with PBS, lysed and luciferase activities determined from two independent transfection experiments in triplicate. We computed a paired t-test to assess the difference of the means between samples with and without the human interactor. For a trial to be considered positive, the relative luciferase activities has to be >=2 or <=0.5, and the p-value of the t-test<0.05.
Many HIV/HTLV-human interactions in our data set (130/212) involved the retroviral transactivator proteins HTLV-1 Tax (57/212), HTLV-2 Tax2 (49/212), HIV-1 Tat (10/212) and HIV-2 Tat (14/212). Human proteins interacting with viral transactivators likely influence Tat or Tax transactivation. Expression vectors encoding human ORFs and HIV-1 Tat or HTLV-1 Tax proteins were tested in a transactivation reporter assay against reporter plasmids harboring HIV-1 or HTLV-1 viral promoter sequences cloned upstream of the luciferase reporter gene. In the controls Tat or Tax respectively activated HIV or HTLV LTR-directed gene expression. Co-transfection of interacting human ORFs identified 71 proteins (54% of the 131 human targets in our data set) that regulated HIV (26.7% of targets), HTLV (37.4% of targets) or both (9.9% of targets) LTR promoter activation by Tat or Tax (see Tables 7 and 8; Table 13 below containing quantitative data on the regulation of transactivation). Wherever not expressly specified, constructs used herein were generally made by sub-cloning entry clones from the ORFeome V3.1 into suitable destination vectors.

Molecule	HIV_LTR transactiv.
B1	2.68 fold change
B2	0.33 fold change
B3	3.41 fold change
B4	2.38 fold change
B5	2.50 fold change
B6	0.40 fold change
B7	6.90 fold change
B8	7.30 fold change

The molecules below were run on HTLV-1 LTR promoter transactivation by HTLV-1 Tax (assay: Transactivation assay, HTLV-1 LTR luciferase reporter with HTLV-1 Tax). Settings: HEK293 cells co-transfected with pHTLV1LTR-Luc, HTLV-1 Tax and the human ORF; relative luciferase activity 24 h post-transfection; positive if >=2 or <=0.5 and p<0.05.
Assay type: cell-based
Source text: Twenty-four hours post-transfection, cells were washed three times with PBS, lysed and luciferase activities determined from two independent transfection experiments in triplicate. We computed a paired t-test to assess the difference of the means between samples with and without the human interactor. For a trial to be considered positive, the relative luciferase activities has to be >=2 or <=0.5, and the p-value of the t-test<0.05.
Expression vectors encoding human ORFs and HIV-1 Tat or HTLV-1 Tax proteins were tested in a transactivation reporter assay against reporter plasmids harboring HIV-1 or HTLV-1 viral promoter sequences cloned upstream of the luciferase reporter gene. […] Wherever not expressly specified, constructs used herein were generally made by sub-cloning entry clones from the ORFeome V3.1 into suitable destination vectors.

Molecule	HTLV_LTR transactiv.
B9	0.21 fold change
